According to patent US20250076311A1 (Chugai, published 2025):
Where a chain is given by its changes, count along the chain named. Numbers in names are those of the source.

Legend:
[1] = molecular target: T1, cynomolgus monkey FcγRIIa1 extracellular domain with C-terminal His-tag (cynomolgus monkey); experiment: SPR, KD(SG1)/KD(variant)
T1 construct: also called cyno FcgRIIa1; cynoFcγRIIa1
T1 chain: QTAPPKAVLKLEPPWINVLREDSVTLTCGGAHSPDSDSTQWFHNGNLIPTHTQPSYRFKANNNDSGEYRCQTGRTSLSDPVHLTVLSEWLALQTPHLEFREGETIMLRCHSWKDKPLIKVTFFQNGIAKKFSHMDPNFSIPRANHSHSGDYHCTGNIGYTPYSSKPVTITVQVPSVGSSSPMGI
Protocol: (§1) The kinetic analysis of interactions between these antibodies and FcγR was carried out using BIACORE® T200 or BIACORE® 4000 (GE Healthcare). HBS-EP+ (GE Healthcare) was used as the running buffer, and the measurement temperature was set to 25° C. […] After the measurement, the antibody captured on the chip was washed off by allowing reaction with 10 mM glycine-HCl, pH1.5 and 25 mM NaOH so that the chip was regenerated and used repeatedly. The sensorgrams obtained as measurement results were analyzed by the 1:1 Langmuir binding model using the BIACORE® Evaluation Software to calculate the binding rate constant ka (L/mol/s) and dissociation rate constant kd (1/s), and the dissociation constant KD (mol/L) was calculated from these values. […] Regarding such interactions, KD values were calculated using the following 1:1 binding model described in BIACORE® T100 Software Handbook BR1006-48 Edition AE.

[2] = molecular target: T2, cynomolgus monkey FcγRIIa2 extracellular domain with C-terminal His-tag (cynomolgus monkey); experiment: SPR, KD(SG1)/KD(variant)
T2 construct: also called cyno FcgRIIa2; cynoFcγRIIa2
T2 chain: T1 chain with P95T, T121A, I127K, A128S, K130N, D135N, R142Q
Protocol: as §1

[3] = molecular target: T3, cynomolgus monkey FcγRIIIaS extracellular domain with C-terminal His-tag (cynomolgus monkey, UniProt Q8SPW2 21-206 at identity 1.00)); experiment: SPR, KD(SG1)/KD(variant)
T3 construct: also called cyno FcgRIIIaS; cynoFcγRIIIaS
T3 chain: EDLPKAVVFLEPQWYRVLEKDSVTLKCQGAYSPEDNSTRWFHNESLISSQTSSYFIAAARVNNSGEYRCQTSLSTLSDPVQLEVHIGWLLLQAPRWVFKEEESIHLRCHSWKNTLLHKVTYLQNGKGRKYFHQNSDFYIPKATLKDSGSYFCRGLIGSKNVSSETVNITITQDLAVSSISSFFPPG
Protocol: as §1

[4] = molecular target: T4, human FcγRIIIaV extracellular domain with C-terminal His-tag (human, UniProt P08637 17-208); experiment: SPR, KD(SG1)/KD(variant)
T4 construct: also called human FcgRIIIaV
Protocol: as §1

[5] = molecular target: T3, cynomolgus monkey FcγRIIIaS …; experiment: SPR, antibody captured, FcγR analyte
[6] = molecular target: T5, human FcγRIIaR extracellular domain with C-terminal His-tag (human, UniProt P12318 34-217); experiment: SPR, antibody captured, FcγR analyte
T5 construct: also called human FcgRIIaR; FcγRIIa (type R)
T5 chain: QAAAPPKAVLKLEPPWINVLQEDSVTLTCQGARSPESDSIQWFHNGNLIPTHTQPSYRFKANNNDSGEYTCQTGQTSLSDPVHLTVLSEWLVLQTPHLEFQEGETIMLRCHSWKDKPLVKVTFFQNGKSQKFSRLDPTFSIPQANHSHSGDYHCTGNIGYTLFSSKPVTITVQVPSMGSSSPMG

[7] = molecular target: T6, human FcγRIIaH extracellular domain, C-terminal His-tag (human, UniProt P12318 34-217); experiment: SPR, anti-kappa capture; KD(SG1)/KD(variant)
T6 construct: also called FcgRIIaH; human FcγRIIa (type H)
T6 sequence: T5 chain with R134H

[8] = molecular target: T7, cynomolgus monkey FcγRIIa3 extracellular domain, His-tagged (cynomolgus monkey); experiment: SPR Biacore, KD(SG1)/KD(variant)
T7 construct: also called cyno FcγRIIa3; cynoFcgRIIa3; not shown: C-terminal His-tag
T7 chain: T1 chain with P95T, T121A, A128S, H133P, D135N

[9] = molecular target: T8, cynomolgus monkey FcγRIIa2 extracellular domain, His-tagged (cynomolgus monkey); experiment: SPR Biacore, antibody captured, FcgR analyte
T8 construct: also called cyno FcγRIIa2; cynoFcgRIIa2; not shown: C-terminal His-tag
T8 chain: T1 chain with P95T, T121A, I127K, A128S, K130N, D135N, R142Q

[10] = molecular target: T9, human FcγRIIIaV extracellular domain, His-tagged (human, UniProt P08637 17-208); experiment: SPR Biacore, antibody captured, FcgR analyte
T9 construct: also called FcgRIIIaV; not shown: C-terminal His-tag

[11] = molecular target: T10, cynomolgus monkey FcγRIIb extracellular domain, His-tagged (cynomolgus monkey); experiment: SPR Biacore, antibody captured, FcgR analyte
T10 construct: also called cyno FcγRIIb; cynoFcγRIIb; not shown: C-terminal His-tag
T10 chain: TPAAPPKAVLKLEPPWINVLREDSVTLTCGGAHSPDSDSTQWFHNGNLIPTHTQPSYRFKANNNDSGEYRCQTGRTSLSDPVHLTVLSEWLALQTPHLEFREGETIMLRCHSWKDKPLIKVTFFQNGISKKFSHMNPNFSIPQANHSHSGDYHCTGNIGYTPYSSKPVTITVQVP

[12] = molecular target: T8, cynomolgus monkey FcγRIIa2 …; experiment: SPR Biacore, KD(SG1)/KD(variant)
[13] = molecular target: T11, human FcγRIIaR extracellular domain, His-tagged (human, UniProt P12318 34-217); experiment: SPR Biacore, KD(SG1)/KD(variant)
T11 construct: also called human FcγRIIa (type R); FcgRIIaR; not shown: C-terminal His-tag
T11 chain: T5 chain

[14] = molecular target: T12, human FcγRIIb extracellular domain, His-tagged (human, UniProt P31994 43-217); experiment: SPR Biacore, KD(SG1)/KD(variant)
T12 construct: also called FcgRIIb (human); not shown: C-terminal His-tag
T12 sequence: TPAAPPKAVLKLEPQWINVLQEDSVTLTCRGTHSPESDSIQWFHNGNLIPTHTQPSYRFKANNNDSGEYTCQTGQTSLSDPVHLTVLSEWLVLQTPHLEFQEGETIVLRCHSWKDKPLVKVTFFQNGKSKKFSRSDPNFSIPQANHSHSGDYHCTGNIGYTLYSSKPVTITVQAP

T9 sequence (P08637 17-208 F176V): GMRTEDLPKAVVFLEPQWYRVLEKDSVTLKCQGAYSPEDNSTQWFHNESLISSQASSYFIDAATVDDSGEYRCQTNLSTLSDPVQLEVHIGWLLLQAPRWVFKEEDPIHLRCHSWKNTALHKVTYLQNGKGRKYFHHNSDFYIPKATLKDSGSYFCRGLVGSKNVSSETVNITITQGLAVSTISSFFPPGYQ
T4 sequence (P08637 17-208 F176V): as above

B1: MS1032LO06-PK57 (antibody, human IgG1, kappa)
heavy: QVTLKESGPVLVKPTETLTLTCTVSGIDLSHDDISWVRQAPGKGLEWVGIISYAGSTYYASWAKGRLTISKDTSKNQVVLTMTNMDPVDTATYYCARGVPAYSHGGDLWGQGTLVTVSSASTKGPSVFPLAPSSKSTSGGTAALGCLVKDYFPEPVTVSWNSGALTSGVHTFPAVLQSSGLYSLSSVVTVPSSSLGTQTYICNVNHKPSNTKVDKKVEPKSCDKTHTCPPCPAPELLNGPSVFLFPPKPKDTLMISRTPEVTCVVVDVSDEDPEVKFNWYVDGVEVHNAKTKPREEQYNSTYRVVSVLTVLHRDWLNGKEYKCKVSNKALPKPIEKTISKAKGQPREPQVYTLPPSREEMTKNQVSLTCLVKGFYPSDIAVEWESRGQPENNYKTTPPVLDSDGSFFLYSKLTVRKSRWQQGNVFSCSVMHEALHNHYTQKSLSLSP
light: DIVMTQSPATLSLSPGERATLSCTSSQSVYHANWLSWFQQKPGQPPKLLIYWASTLAYGVPSRFSGSGSGTDFTLTISSLQPEDAATYYCAGGYGGGRYAFGQGTKVEIKRTVAAPSVFIFPPSDEQLKSGTASVVCLLNNFYPREAKVQWKVDNALQSGNSQESVTEQDSKDSTYSLSSTLTLSKADYEKHKVYACEVTHQGLSSPVTKSFNRGEC
notes: MY201 with Q311R/N384R/D413R; also called MS103205H795-PK57; M103205H795-MY57; copies: 2 + 2
For B1, the “KD fold (SG1 = 1)” value [1] was 2.3 fold, the “KD fold (SG1 = 1)” value [2] was 2 fold and the “KD fold (SG1 = 1)” value [3] was 0.06 fold. For the same binder, the “KD fold (SG1 = 1)” value [4] was 0.07 fold, the Kd [5] was 4300 nM and the Kd [6] was 22000 nM.

B2: MS103240H795-TT91/M103202L1045-SK1 (antibody)
heavy: QVQLVESGGGLVQPGGSLRLSCAVSGIDLSHDDISWVRQAPGKGLEWVSIISYAGSTYYASWAKGRLTISKDTSKNQVVLTMTNMDPVDTATYYCARGVPAYSHGGDLWGQGTLVTVSSASTKGPSVFPLAPSSKSTSGGTAALGCLVKDYFPEPVTVSWNSGALTSGVHTFPAVLQSSGLYSLSSVVTVPSSSLGTQTYICNVNHKPSNTKVDKKVEPKSCDKTHTCPPCPAPEYLGGDSVFLFPPKPKDVLMISRTPEVTCVVIDVSHEDPEVKFNWYVDGVEVHNAKTKPREEQYNSTYRVVSVLPVLHRDWLNGKEYKCKVSNKALPKPIEKTISKAKGQRREPQVYTLPPSREEMTKNQVSLTCLVKGFYPSDIAVEWESNGQPENNYKTTPPVLDSDGSFFLYSKLTVDKSRWQQGNVFSCSVLHEALHAHTTRKELSLSP
light: B1 light with S25T, A32E
In the case of B2, the “KD fold (SG1 = 1)” value [7] is reported as 0.02 fold.

B3: MS103240H795-TT68/M103202L1045-SK1 (antibody)
heavy: B2 heavy with Y236L, I266V, R345P, D415K, L430M, T438Y
light: B1 light with S25T, A32E
notes: copies: 2 + 2
With B3 the “KD fold (SG1 = 1)” value [7] was 0.006 fold.

B4: M103205H795-MY043/M103202L889-SK1 (antibody, human IgG1, kappa, name in EU numbering)
heavy: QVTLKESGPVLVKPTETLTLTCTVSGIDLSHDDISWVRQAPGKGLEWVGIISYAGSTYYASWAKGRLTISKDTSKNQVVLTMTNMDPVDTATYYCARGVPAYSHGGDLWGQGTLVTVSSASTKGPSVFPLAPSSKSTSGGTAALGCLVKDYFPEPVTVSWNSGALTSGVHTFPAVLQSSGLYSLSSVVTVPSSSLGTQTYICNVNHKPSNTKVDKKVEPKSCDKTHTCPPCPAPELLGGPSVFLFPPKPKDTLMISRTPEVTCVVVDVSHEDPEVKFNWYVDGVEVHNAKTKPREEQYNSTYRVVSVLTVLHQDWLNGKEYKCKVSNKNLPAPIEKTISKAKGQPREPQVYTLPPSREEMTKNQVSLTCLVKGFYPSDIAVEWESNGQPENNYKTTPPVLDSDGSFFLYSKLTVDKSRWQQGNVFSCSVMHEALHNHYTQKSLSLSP
light: B1 light
notes: Substitution introduced into M103205H795-SG1; EU numbering
For B4, the “KD fold (SG1 = 1)” value [8] was 0.5 fold, the Kd [9] was 6100 nM and the Kd [10] was 1200 nM.

B5: M103205H795-MY015/M103202L889-SK1 (antibody, human IgG1, kappa, name in EU numbering)
heavy: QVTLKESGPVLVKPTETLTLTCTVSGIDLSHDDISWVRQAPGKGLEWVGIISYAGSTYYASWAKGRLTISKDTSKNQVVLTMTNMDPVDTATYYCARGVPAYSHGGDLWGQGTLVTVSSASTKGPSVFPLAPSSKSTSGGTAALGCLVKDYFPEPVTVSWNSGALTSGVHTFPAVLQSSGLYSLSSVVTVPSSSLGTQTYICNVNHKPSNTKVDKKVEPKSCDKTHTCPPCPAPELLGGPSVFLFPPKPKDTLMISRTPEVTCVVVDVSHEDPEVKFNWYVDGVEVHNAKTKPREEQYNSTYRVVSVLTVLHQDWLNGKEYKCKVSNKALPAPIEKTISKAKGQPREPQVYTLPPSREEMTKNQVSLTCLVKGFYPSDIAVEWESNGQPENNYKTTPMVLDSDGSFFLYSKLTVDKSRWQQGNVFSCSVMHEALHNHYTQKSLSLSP
light: B1 light
notes: as for B4
For B5, the Kd [11] was 600 nM.

B6: M103205H795-MY038/M103202L889-SK1 (antibody, human IgG1, kappa, name in EU numbering)
heavy: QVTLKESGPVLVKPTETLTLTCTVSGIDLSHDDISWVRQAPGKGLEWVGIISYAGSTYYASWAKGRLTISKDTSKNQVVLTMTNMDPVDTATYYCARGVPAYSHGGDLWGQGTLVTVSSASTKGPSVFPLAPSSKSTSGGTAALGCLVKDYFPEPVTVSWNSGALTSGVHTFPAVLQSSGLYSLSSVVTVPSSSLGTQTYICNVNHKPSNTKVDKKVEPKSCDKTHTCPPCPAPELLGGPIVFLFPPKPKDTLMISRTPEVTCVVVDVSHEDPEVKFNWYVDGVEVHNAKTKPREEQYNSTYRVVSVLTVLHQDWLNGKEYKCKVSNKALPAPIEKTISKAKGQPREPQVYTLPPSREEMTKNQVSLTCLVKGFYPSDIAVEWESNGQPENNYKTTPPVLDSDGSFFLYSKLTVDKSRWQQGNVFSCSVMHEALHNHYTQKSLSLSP
light: B1 light
notes: as for B4
Work on B6 yielded a Kd [10] of 550 nM.

B7: M103205H795-MY017/M103202L889-SK1 (antibody, human IgG1, kappa, name in EU numbering)
heavy: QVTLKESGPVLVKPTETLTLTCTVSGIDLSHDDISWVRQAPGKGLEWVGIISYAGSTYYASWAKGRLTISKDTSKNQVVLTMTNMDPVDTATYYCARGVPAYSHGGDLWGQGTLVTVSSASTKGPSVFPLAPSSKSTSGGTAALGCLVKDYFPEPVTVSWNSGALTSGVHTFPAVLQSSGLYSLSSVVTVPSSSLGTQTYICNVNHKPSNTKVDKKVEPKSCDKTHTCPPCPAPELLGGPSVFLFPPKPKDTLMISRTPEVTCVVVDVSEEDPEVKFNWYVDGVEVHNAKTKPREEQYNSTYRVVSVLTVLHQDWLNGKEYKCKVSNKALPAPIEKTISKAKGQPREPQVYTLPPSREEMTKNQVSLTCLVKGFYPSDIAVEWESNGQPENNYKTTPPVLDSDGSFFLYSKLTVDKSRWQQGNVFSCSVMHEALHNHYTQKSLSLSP
light: B1 light
notes: as for B4
In the case of B7, the “KD fold (SG1 = 1)” value [12] is reported as 1.6 fold, the “KD fold (SG1 = 1)” value [8] is reported as 3.1 fold and the “KD fold (SG1 = 1)” value [13] is reported as 3.9 fold. The “KD fold (SG1 = 1)” value [14] was 4.5 fold and the Kd [11] was 680 nM.
